The values below come from the supplement of paper PMC10724198.

± gives the standard deviation of the averaged measurements.

This data set concerns Saccharomyces cerevisiae. The data set can be described thus: protein stability index of tFT-peptide fusion (C-terminal peptide) (PSI (0-1 scale)); higher = more stable (slower turnover). Conditions: temperature: 30 C. On the procedure:
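MPS profiling in S. cerevisiae of the yeast C-terminome library: the last 12 aa of each annotated ORF are fused to the C-terminus of a sfGFP-mCherry timer, after a GGGS linker. Cells are FACS-sorted into 8 mCherry/sfGFP bins and deep-sequenced. PSI runs from 0 (unstable) to 1 (stable); wild type and das1Δ backgrounds, two technical replicates each.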

Setting [1] is: genetic background: das1 deletion.

As to RYIRHLQQNVST [PHO4 C-terminal 12 aa], the protein stability index is 0.688 ± 0.016 under setting [1] and 0.683 ± 0.037 (genetic background: wild type).

For the sequence RYIYAYINAQVQ [YHL005C C-terminal 12 aa], the protein stability index by setting is: under setting [1], 0.502 ± 0.03; (genetic background: wild type) 0.452 ± 0.0055.

Turning to SDDDDYDEVANQ [UBC8 C-terminal 12 aa], the protein stability index came to 0.689 ± 0.031 under setting [1] and 0.664 ± 0.015 (genetic background: wild type).

As to SDLNVLLQIKHS [YNL228W C-terminal 12 aa], the protein stability index was found to be 0.7201 ± 0.00055 under setting [1] and 0.31 ± 0.015 (genetic background: wild type).

With SEEEEEEEWKGF [RRP1 C-terminal 12 aa], the protein stability index amounted to 0.68 ± 0.011 under setting [1] and 0.673 ± 0.033 (genetic background: wild type).

Consider “SEKIYRRSLFKQ [YKL165C-A C-terminal 12 aa]”, for which the protein stability index was 0.708 ± 0.03 under setting [1] and 0.686 ± 0.044 (genetic background: wild type).

Consider SEYRRKQQEKKD [YPI1 C-terminal 12 aa], for which the protein stability index reads like this: under setting [1], 0.722 ± 0.019; (genetic background: wild type) 0.688 ± 0.023.

For “SFGIGSKVFSSM [YHR063W-A C-terminal 12 aa]”, the protein stability index stood at 0.711 ± 0.021 under setting [1] and 0.695 ± 0.01 (genetic background: wild type).

For the sequence SFTKSRIHLEFT [SPC105 C-terminal 12 aa], the protein stability index amounted to 0.706 ± 0.024 under setting [1] and 0.69832 ± 2.3e-05 (genetic background: wild type).

SFWPHVAGELEY [INM2 C-terminal 12 aa]: the protein stability index was determined as 0.72 ± 0.014 under setting [1] and 0.693 ± 0.04 (genetic background: wild type).

As to SGGVLDSGDVSL [YGR182C C-terminal 12 aa], the protein stability index amounted to 0.684 ± 0.022 under setting [1] and 0.661 ± 0.029 (genetic background: wild type).

For “SHAALGNETNSL [YHR052C-B C-terminal 12 aa]”, the protein stability index stood at 0.6826 ± 0.0062 under setting [1] and 0.684 ± 0.034 (genetic background: wild type).

Sequence SIIDKELENIDS [SGD1 C-terminal 12 aa] gave a protein stability index under setting [1] of 0.731 ± 0.027 and a protein stability index (genetic background: wild type) of 0.681 ± 0.018.

On to SKGAQKRKNAKK [SHR3 C-terminal 12 aa], for which the protein stability index came to 0.682 ± 0.009 under setting [1] and 0.66 ± 0.022 (genetic background: wild type).

SKKDYSIDSVEM [TPO2 C-terminal 12 aa]: the protein stability index runs as follows: under setting [1], 0.698 ± 0.0055; (genetic background: wild type) 0.677 ± 0.014.

For the sequence SKRVYSICHYEF [ABM1 C-terminal 12 aa], the protein stability index under setting [1] came out at 0.693 ± 0.018 and the protein stability index (genetic background: wild type) is 0.695 ± 0.012.

Regarding SKVNSTRLVSRK [KAR3 C-terminal 12 aa], the protein stability index is 0.6908 ± 0.0058 under setting [1] and 0.723 ± 0.014 (genetic background: wild type).

For the sequence SLEHFIDSVSSL [TRP4 C-terminal 12 aa], the protein stability index runs as follows: under setting [1], 0.7199 ± 0.0016; (genetic background: wild type) 0.672 ± 0.013.

Consider SLIDAKTGLPKE [MVD1 C-terminal 12 aa], for which the protein stability index reads like this: under setting [1], 0.6964 ± 0.004; (genetic background: wild type) 0.706 ± 0.042.

For SLVKTHNSSLCK [IAI11 C-terminal 12 aa], the protein stability index runs as follows: under setting [1], 0.663 ± 0.026; (genetic background: wild type) 0.689 ± 0.095.

Consider SNYGGNSTWGGH [SPT5 C-terminal 12 aa], for which the protein stability index runs as follows: under setting [1], 0.732 ± 0.11; (genetic background: wild type) 0.673 ± 0.16.

SPELHTYETIYD [ROY1 C-terminal 12 aa]: the protein stability index reads like this: under setting [1], 0.752 ± 0.0093; (genetic background: wild type) 0.7694 ± 0.0053.

On to SPEQLKVSLKWH [SKM1 C-terminal 12 aa], for which the protein stability index by setting is: under setting [1], 0.718 ± 0.01; (genetic background: wild type) 0.699 ± 0.022.

With SPGEYEIGDMEN [YDR061W C-terminal 12 aa], the protein stability index under setting [1] came out at 0.675 ± 0.016 and the protein stability index (genetic background: wild type) worked out at 0.681 ± 0.048.

As for SPVPTKKKGFLR [CDC3 C-terminal 12 aa], the protein stability index under setting [1] turned out to be 0.705 ± 0.017 and the protein stability index (genetic background: wild type) came to 0.684 ± 0.012.

As for SQLPSLYAPSYY [SSU72 C-terminal 12 aa], the protein stability index by setting is: under setting [1], 0.703 ± 0.02; (genetic background: wild type) 0.7264 ± 0.0056.

As to SQTKSKQTLFTI [YPR142C C-terminal 12 aa], the protein stability index was determined as 0.722 ± 0.021 under setting [1] and 0.695 ± 0.038 (genetic background: wild type).

Regarding SQTQAGSAYYTK [YOR268C C-terminal 12 aa], the protein stability index is, setting by setting: under setting [1], 0.699 ± 0.026; (genetic background: wild type) 0.688 ± 0.025.

Take SRGQNTHPSVDK [ESC1 C-terminal 12 aa]: the protein stability index was 0.699 ± 0.012 under setting [1] and 0.692 ± 0.029 (genetic background: wild type).

Turning to SRIYQTFTDPSN [ADY4 C-terminal 12 aa], the protein stability index under setting [1] came out at 0.729 ± 0.024 and the protein stability index (genetic background: wild type) came to 0.702 ± 0.061.

For SRKHTTRSGGRW [HOS3 C-terminal 12 aa], the protein stability index runs as follows: under setting [1], 0.695 ± 0.017; (genetic background: wild type) 0.6554 ± 0.00091.

On to SSAHMSSNAIQR [CDC10 C-terminal 12 aa], for which the protein stability index runs as follows: under setting [1], 0.7077 ± 0.0023; (genetic background: wild type) 0.721 ± 0.016.

Take SSESEAVKKAKS [CIC1 C-terminal 12 aa]: the protein stability index was 0.668 ± 0.031 under setting [1] and 0.685 ± 0.062 (genetic background: wild type).

SSKKTIQEEIYI [DPB2 C-terminal 12 aa]: the protein stability index amounted to 0.698 ± 0.015 under setting [1] and 0.741 ± 0.056 (genetic background: wild type).

Turning to SSLARPSLFSSE [YBL077W C-terminal 12 aa], the protein stability index is, setting by setting: under setting [1], 0.735 ± 0.026; (genetic background: wild type) 0.714 ± 0.056.

As for SSNEDKKGMCKL [IDP3 C-terminal 12 aa], the protein stability index under setting [1] was found to be 0.736 ± 0.048 and the protein stability index (genetic background: wild type) was 0.901 ± 0.037.

In the case of “SSNTVYDNILVT [YDR034C-A C-terminal 12 aa]”, the protein stability index was determined as 0.721 ± 0.037 under setting [1] and 0.724 ± 0.028 (genetic background: wild type).

In turn, SSSEQITSSITS [YAR062W C-terminal 12 aa] returned a protein stability index under setting [1] of 0.71 ± 0.025 and a protein stability index (genetic background: wild type) of 0.67 ± 0.008.

SSTDMNGQPIEF [SKA1 C-terminal 12 aa] gave a protein stability index under setting [1] of 0.6884 ± 0.0061 and a protein stability index (genetic background: wild type) of 0.67 ± 0.015.

On to SSVRTLDSNIWR [ISC10 C-terminal 12 aa], for which the protein stability index by setting is: under setting [1], 0.7128 ± 0.0013; (genetic background: wild type) 0.686 ± 0.024.

Sequence SSVVSRVSRSCR [YAR060C C-terminal 12 aa] gave a protein stability index under setting [1] of 0.7343 ± 0.0019 and a protein stability index (genetic background: wild type) of 0.668 ± 0.043.

In the case of SSWISKHSSVTD [YDL109C C-terminal 12 aa], the protein stability index by setting is: under setting [1], 0.696 ± 0.0068; (genetic background: wild type) 0.6859 ± 0.002.

Regarding STKFLRSFGQTI [SWP1 C-terminal 12 aa], the protein stability index worked out at 0.70697 ± 0.0003 under setting [1] and 0.686 ± 0.012 (genetic background: wild type).

Take STKTVPLNFLFL [YDL050C C-terminal 12 aa]: the protein stability index runs as follows: under setting [1], 0.724 ± 0.01; (genetic background: wild type) 0.677 ± 0.032.

Take STMQERFAESTD [VMA1 C-terminal 12 aa]: the protein stability index is 0.682 ± 0.011 under setting [1] and 0.706 ± 0.032 (genetic background: wild type).

For the sequence SVENIFMIWFFY [YJL022W C-terminal 12 aa], the protein stability index runs as follows: under setting [1], 0.5089 ± 0.0034; (genetic background: wild type) 0.494 ± 0.011.

For the sequence SVHPLIISYSQL [TRM732 C-terminal 12 aa], the protein stability index is 0.716 ± 0.05 under setting [1] and 0.637 ± 0.024 (genetic background: wild type).

As for SVVSQPPPGYEQ [HSE1 C-terminal 12 aa], the protein stability index runs as follows: under setting [1], 0.7102 ± 0.0066; (genetic background: wild type) 0.667 ± 0.02.

As for SVYQPFFALCGL [YDR355C C-terminal 12 aa], the protein stability index was determined as 0.6756 ± 0.0066 under setting [1] and 0.645 ± 0.017 (genetic background: wild type).

With SYRLGKNAAEGK [CAP1 C-terminal 12 aa], the protein stability index by setting is: under setting [1], 0.685 ± 0.017; (genetic background: wild type) 0.663 ± 0.025.

On to TAPLGKALHDLS [REE1 C-terminal 12 aa], for which the protein stability index reads like this: under setting [1], 0.687 ± 0.059; (genetic background: wild type) 0.72 ± 0.059.

TASQILKFEGRI [GRE2 C-terminal 12 aa] showed a protein stability index under setting [1] of 0.718 ± 0.035 and a protein stability index (genetic background: wild type) of 0.695 ± 0.057.

On to TEAMNSEIDGTK [ATG16 C-terminal 12 aa], for which the protein stability index turned out to be 0.686 ± 0.017 under setting [1] and 0.703 ± 0.042 (genetic background: wild type).

As to TFELVMRFLGEE [YMC2 C-terminal 12 aa], the protein stability index runs as follows: under setting [1], 0.709 ± 0.0094; (genetic background: wild type) 0.669 ± 0.0095.

Consider TFQKAQVEAEWV [TOA1 C-terminal 12 aa], for which the protein stability index under setting [1] came to 0.70901 ± 0.00064 and the protein stability index (genetic background: wild type) turned out to be 0.692 ± 0.027.

For “TFTLAVTPYPAF [YLL066W-B C-terminal 12 aa]”, the protein stability index turned out to be 0.715 ± 0.013 under setting [1] and 0.6847 ± 0.0036 (genetic background: wild type).

On to TGNGPNLDNLKY [ARA1 C-terminal 12 aa], for which the protein stability index by setting is: under setting [1], 0.722 ± 0.0074; (genetic background: wild type) 0.641 ± 0.019.

For the sequence “TGWPTGLRHQHT [YER133W-A C-terminal 12 aa]”, the protein stability index amounted to 0.7212 ± 0.0034 under setting [1] and 0.695 ± 0.011 (genetic background: wild type).

As for TKKLLRDYFSQF [SMN1 C-terminal 12 aa], the protein stability index is 0.712 ± 0.0096 under setting [1] and 0.188 ± 0.014 (genetic background: wild type).

In the case of TKMFPAHSHVLW [THP1 C-terminal 12 aa], the protein stability index runs as follows: under setting [1], 0.716 ± 0.032; (genetic background: wild type) 0.72 ± 0.014.

TLGLLCLIFGLP [YOR277C C-terminal 12 aa]: the protein stability index was 0.482 ± 0.0081 under setting [1] and 0.499 ± 0.018 (genetic background: wild type).

TLLNAQKEALKK [APT1 C-terminal 12 aa]: the protein stability index turned out to be 0.6698 ± 0.0014 under setting [1] and 0.684 ± 0.03 (genetic background: wild type).

As for “TLSKEPFLVFSF [YDL185C-A C-terminal 12 aa]”, the protein stability index is, setting by setting: under setting [1], 0.499 ± 0.026; (genetic background: wild type) 0.494 ± 0.025.

TMSLLKRNPRNH [TRM44 C-terminal 12 aa]: the protein stability index was found to be 0.704 ± 0.02 under setting [1] and 0.683 ± 0.032 (genetic background: wild type).

Regarding TNEWCLFTPDSP [MLH2 C-terminal 12 aa], the protein stability index was determined as 0.744 ± 0.018 under setting [1] and 0.7355 ± 0.005 (genetic background: wild type).

Regarding TNMSSVSAFISR [PTK2 C-terminal 12 aa], the protein stability index by setting is: under setting [1], 0.718 ± 0.0017; (genetic background: wild type) 0.713 ± 0.013.

On to TNQPVNENNDLK [SNF3 C-terminal 12 aa], for which the protein stability index by setting is: under setting [1], 0.667 ± 0.013; (genetic background: wild type) 0.629 ± 0.0078.
